Laboratory results from patent US10365283B2, “Activated HER3 as a marker for predicting therapeutic efficacy” (U3 PHARMA GMBH, priority 2006, dated 2019).

Target: T1, pHer3 in BxPC3 and Calu-3 xenografts (Homo sapiens, UniProt P21860)
T1 construct: on FFPE sections of BxPC3 xenografts; endogenous in cells; host or cells: BxPC3 (pancreas cancer) and Calu-3 (NSCLC) human tumour cells grown as xenografts in mice
Experiment: Immunohistochemical staining with anti-pHer3 antibody 21D3 on FFPE sections of xenograft tumours after antibody administration
Assay type: in vivo
Settings: FIGS. 7, 8 and 11, versus control IgG1
Procedure: FIG. 7: Immunohistochemical staining with rabbit monoclonal anti-p Her3 antibody (Cell Signalling 21D3, Lot 4 1:650 dilution, 0.074 ug/ml) on FFPE sections of BxPC3 xenografts, 20×. • (A) and (B) Tumour after administration of control IgG1 500 μg/mouse • (C) and (D) Tumour after administration of antibody U3-1287 500 μg/mouse • Stainings were done in duplicate on three independent xenografts.
FIG. 8: Immunohistochemical staining with rabbit monoclonal anti-pHer3 antibody (Cell Signalling 21D3, Lot 4 1:650 dilution, 0.074 ug/ml) on FFPE sections of BxPC3 xenografts, 20×. • (A) Tumour after administration of antibody U3-1287 25 μg/mouse • (B) Tumour after administration of antibody […] 100 μg/mouse • (C) Tumour after administration of antibody U3-1287 200 μg/mouse • (D) Tumour after administration of antibody U3-1287 500 μg/mouse • (E) Tumour after administration of control IgG1 500 μg/mouse. • Stainings were done in duplicate on three independent xenografts.
FIG. 11: Immunohistochemical staining with rabbit monoclonal anti pHer3 antibody (Cell Signalling 21D3, Lot 4 1:8000 dilution, 0.006 ug/ml) on FFPE sections Calu-3 xenografts, 40×. • (A) and (B) Tumour after administration of control IgG1 25 mg/kg 72 h • (C) and (D) Tumour after administration of antibody U3-1287 25 mg/kg 72 h • Stainings were done in duplicate on five independent xenografts.
Using a microtome, 2-4 μm thin sections were cut, mounted on silanized glass slides and dried at 60° C. for 30 minutes and at 38° C. overnight. Deparaffinisation and rehydration of the specimen was achieved by incubating 2×5 minutes in Xylol, 2×2 minutes in 100% ethanol and 2 minutes each in 96%, 80% and 70% ethanol. After rinsing 20 seconds in distilled water, the slides were incubated for two minutes in PBS. […]
The anti-tumor efficacy of a HER modulator were evaluated in human xenograft tumor studies. In these studies, human tumors were grown as xenografts in immunocompromised mice and therapeutic efficacy was measured by the degree of tumor growth inhibition in response to administrations of the HER modulator. […]

membrane staining intensity (pHer3): reduction
pHer3 positive cells compared to whole cell number in the tumour: reduction
tumour cells compared to whole cell number in the tumour: reduction
Substance: anti-HER3 antibody: anti-HER3 antibody U3-1287 administered to mice bearing BxPC3 or Calu-3 xenografts
